No end group written: not given here.
Tests used:
LSECs = test: NP-associated FITC-OVA uptake, flow cytometry; format: cell-based, mouse
Protocol: Following OVA-FITC labeling, the antigen was encapsulated in NPs as described in Example 1 Materials and Methods. LSECs and KUP5 cells were incubated with FITC-OVA or NP^FITC-OVA for the indicated time periods. After being washed in PBS, the % FITC-OVA^+ cells and the cellular mean fluorescence intensity (MFI) were analyzed in a BD LSRII (IMED) analytic flow cytometer by Flowjo® software. Panels (A, B): Kinetics of NP-mediated antigen uptake in LSECs and KUP5 cells, respectively. Panels (C, D): Histograms depicting the % and MFI of antigen-positive LSECs. Data are expressed as the mean±SEM (n=6); *p<0.05; **p<0.01; ***[…] (one-way ANOVA followed by Tukey's test).
To quantitatively evaluate antigen uptake into cells, OVA was labeled with FITC as previously described. Following the incorporation of FITC-OVA into NPs, LSECs and KUP5 cells were incubated with FITC-OVA or the labeled particles for 24 h. Cells were collected, washed with PBS, and analyzed in a BD LSRII (IMED) analytic flow cytometer. Flowjo software (Ashland, OR) was used to quantify the percentage and mean fluorescence intensity of the FITC-OVA+-labeled cells.

mice = test: Biodistribution of DyLight680-OVA NPs after IV injection, ex vivo IVIS imaging; design: species or system mouse; conditions: 25 μg OVA in 500 μg NPs per animal, 24 h
Description: Panel (B): Confocal microscopy to show the intrahepatic distribution of free or encapsulated labeled OVA. […] The red and green fluorescence colors represent DyLight680-labeled OVA and isolectin B4 stained LSECs, respectively. Scale bars correspond to 50 μm. Data are expressed as the mean±SEM (n=6); *p<0.05; **p<0.01; ***[…] (one-way ANOVA followed by Tukey's test).
FIG. 17A schematically illustrates two main strategies for inducing immune tolerance. Strategy 1 depicts a liver-targeting nanoparticle for allergen delivery to LSEC in the liver, where allergen processing and presentation to naïve T-cells induce antigen-specific Foxp3^+ Tregs, which are recruited to the site of allergic inflammation in the lung. […] FIG. 17B schematically illustrates the PLGA nanoparticle synthesis process, including carrier loading with cargo (allergen, epitopes, pharmaceutical agents), by a w/o/w double emulsion method combined with solvent removal. […] The red and green fluorescence colors represent Dylight680-labeled OVA and isolectin B4 stained LSECs, respectively. […]
The near-infrared fluorescent dye, DyLight680 (ex=692, em=712), was used to label OVA, which was subsequently encapsulated in the NPs. […] The data were analyzed using Living Image software (PerkinElmer, version 4.5) and were expressed as the fluorescence intensity in the region of interest. […]

[1] = biological target: stabilin-2 scavenger receptor on liver sinusoidal endothelial cells (LSECs) (mouse, UniProt Q8R4U0 29-2559); test: cell-based or functional assay
[2] = biological target: stabilin-1 scavenger receptor on liver sinusoidal endothelial cells (LSECs) (mouse, UniProt Q8R4Y4 26-2571); test: cell-based or functional assay
Chain of stabilin-1 scavenger receptor on liver sinusoidal endothelial cells (LSECs) (Q8R4Y4 26-2571): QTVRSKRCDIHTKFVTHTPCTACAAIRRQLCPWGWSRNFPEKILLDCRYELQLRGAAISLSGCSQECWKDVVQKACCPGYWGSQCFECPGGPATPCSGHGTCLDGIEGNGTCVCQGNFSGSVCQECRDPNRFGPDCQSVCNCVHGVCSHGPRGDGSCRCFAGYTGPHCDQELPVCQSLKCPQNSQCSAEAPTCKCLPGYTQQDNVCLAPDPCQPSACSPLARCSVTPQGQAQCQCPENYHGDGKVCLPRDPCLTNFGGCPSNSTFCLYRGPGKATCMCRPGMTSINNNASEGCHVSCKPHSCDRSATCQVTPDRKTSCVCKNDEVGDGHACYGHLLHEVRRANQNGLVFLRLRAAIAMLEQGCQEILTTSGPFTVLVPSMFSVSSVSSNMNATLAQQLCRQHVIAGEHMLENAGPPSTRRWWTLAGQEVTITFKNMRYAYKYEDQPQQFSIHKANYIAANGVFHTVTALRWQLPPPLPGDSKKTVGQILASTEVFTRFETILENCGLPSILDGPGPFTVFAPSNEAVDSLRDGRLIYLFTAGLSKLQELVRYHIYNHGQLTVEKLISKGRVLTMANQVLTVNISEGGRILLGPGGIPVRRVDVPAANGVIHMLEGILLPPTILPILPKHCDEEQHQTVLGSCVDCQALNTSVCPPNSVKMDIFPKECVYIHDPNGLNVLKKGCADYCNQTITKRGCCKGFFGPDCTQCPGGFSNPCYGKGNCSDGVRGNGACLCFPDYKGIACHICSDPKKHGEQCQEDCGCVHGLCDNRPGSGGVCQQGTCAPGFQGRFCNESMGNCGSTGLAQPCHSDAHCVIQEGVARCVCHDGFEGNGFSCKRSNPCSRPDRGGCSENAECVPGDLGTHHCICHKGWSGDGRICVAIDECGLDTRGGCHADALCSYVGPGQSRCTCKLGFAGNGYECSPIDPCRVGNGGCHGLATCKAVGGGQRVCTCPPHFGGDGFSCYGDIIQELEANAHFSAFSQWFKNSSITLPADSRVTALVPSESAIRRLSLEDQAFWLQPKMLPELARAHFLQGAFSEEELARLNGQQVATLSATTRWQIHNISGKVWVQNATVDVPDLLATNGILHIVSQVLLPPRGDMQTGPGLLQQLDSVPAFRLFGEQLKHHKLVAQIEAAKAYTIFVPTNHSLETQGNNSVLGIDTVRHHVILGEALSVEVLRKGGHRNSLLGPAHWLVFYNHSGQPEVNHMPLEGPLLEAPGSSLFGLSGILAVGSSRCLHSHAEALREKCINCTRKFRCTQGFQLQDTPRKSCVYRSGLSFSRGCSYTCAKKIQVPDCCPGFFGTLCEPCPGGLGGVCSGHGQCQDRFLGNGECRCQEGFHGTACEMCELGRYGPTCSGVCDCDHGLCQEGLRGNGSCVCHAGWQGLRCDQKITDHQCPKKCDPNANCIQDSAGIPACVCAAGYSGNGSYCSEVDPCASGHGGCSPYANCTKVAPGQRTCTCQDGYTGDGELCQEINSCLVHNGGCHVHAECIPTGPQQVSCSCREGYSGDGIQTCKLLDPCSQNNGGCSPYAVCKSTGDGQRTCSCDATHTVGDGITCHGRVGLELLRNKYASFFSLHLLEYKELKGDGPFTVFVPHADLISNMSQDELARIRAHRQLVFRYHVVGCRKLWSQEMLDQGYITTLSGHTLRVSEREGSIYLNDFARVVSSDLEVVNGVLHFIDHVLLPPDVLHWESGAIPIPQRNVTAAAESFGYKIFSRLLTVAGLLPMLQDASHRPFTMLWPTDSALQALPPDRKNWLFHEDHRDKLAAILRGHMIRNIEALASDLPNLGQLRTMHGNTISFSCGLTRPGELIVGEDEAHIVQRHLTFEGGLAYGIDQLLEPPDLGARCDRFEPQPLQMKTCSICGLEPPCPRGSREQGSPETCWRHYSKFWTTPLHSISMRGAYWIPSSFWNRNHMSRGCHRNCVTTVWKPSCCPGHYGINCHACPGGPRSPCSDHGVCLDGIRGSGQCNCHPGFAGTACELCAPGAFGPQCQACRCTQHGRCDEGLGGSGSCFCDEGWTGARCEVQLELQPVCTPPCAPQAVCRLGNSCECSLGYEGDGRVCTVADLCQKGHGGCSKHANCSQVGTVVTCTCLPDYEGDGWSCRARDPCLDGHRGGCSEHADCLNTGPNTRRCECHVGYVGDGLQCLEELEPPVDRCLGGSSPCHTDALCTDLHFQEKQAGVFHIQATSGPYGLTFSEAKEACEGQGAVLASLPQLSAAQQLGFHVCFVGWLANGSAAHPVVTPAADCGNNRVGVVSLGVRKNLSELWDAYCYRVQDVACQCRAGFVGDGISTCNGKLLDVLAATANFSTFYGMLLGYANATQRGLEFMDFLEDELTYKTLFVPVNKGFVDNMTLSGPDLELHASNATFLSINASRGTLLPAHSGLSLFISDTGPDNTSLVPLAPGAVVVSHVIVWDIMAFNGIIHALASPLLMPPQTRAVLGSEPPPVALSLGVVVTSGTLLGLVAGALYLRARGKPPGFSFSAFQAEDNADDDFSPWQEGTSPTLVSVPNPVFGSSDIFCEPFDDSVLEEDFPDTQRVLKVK

Chain of stabilin-2 scavenger receptor on liver sinusoidal endothelial cells (LSECs) (Q8R4U0 29-2559): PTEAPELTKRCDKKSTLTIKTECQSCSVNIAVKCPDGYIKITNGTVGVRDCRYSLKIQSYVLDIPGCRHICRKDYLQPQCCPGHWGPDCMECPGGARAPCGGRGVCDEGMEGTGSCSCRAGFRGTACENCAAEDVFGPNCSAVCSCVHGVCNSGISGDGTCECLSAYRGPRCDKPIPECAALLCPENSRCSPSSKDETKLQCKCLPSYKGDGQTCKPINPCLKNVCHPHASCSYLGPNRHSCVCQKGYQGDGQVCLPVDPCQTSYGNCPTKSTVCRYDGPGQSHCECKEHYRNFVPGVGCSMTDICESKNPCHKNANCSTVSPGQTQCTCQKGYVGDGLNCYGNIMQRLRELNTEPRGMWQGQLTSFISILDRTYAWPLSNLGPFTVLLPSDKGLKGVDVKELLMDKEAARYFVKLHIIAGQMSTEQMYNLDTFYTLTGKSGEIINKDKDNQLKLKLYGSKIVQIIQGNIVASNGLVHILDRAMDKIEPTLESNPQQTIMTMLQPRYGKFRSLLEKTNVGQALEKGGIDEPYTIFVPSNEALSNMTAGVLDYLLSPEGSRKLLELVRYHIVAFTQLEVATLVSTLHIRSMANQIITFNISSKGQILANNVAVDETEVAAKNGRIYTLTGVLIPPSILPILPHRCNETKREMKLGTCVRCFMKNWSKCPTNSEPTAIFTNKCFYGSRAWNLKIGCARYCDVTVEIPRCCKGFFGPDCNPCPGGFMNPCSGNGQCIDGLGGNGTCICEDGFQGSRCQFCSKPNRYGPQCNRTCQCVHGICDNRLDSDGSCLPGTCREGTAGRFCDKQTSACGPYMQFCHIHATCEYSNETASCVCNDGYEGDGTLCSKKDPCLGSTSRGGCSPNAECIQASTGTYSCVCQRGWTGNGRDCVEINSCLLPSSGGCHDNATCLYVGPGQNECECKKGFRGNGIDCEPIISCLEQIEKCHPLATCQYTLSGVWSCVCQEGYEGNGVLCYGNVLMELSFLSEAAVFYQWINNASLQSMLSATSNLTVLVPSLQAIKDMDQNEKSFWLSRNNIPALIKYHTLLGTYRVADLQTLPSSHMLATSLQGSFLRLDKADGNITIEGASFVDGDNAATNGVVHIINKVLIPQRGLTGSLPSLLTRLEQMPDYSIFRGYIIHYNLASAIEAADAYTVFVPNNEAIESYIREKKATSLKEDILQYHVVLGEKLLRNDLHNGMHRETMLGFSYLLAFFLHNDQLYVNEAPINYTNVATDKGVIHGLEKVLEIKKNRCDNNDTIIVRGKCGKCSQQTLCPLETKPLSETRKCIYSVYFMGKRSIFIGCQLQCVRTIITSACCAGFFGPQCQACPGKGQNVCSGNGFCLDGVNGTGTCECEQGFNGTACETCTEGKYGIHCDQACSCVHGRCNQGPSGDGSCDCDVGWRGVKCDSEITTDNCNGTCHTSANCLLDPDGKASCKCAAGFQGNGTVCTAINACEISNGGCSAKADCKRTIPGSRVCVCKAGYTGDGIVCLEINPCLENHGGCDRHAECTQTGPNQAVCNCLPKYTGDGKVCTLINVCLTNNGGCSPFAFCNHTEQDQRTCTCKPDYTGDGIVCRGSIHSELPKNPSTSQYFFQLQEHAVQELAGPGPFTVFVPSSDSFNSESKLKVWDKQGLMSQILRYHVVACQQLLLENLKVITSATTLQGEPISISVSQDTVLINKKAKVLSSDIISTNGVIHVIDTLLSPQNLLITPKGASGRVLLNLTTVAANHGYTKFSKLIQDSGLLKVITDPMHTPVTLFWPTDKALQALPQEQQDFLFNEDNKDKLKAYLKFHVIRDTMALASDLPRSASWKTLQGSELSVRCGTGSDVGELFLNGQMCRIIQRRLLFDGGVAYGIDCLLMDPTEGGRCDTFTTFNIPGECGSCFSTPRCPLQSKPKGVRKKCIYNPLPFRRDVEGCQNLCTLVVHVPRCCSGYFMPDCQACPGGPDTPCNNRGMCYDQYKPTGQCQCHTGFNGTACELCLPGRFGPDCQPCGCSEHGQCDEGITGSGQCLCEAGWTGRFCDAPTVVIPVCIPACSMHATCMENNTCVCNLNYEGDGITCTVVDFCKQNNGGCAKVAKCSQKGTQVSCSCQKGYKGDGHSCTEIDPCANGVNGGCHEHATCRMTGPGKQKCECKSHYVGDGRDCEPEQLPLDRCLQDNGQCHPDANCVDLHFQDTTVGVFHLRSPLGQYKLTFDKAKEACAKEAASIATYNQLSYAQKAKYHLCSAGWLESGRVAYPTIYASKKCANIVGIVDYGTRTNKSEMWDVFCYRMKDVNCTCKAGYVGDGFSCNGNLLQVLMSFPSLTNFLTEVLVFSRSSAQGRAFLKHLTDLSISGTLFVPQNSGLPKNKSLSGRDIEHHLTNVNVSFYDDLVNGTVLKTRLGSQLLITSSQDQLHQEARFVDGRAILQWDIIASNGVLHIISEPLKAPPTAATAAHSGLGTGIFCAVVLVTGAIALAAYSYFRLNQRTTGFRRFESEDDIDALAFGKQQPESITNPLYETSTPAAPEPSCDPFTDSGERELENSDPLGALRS

FITC-OVA: fluorescein isothiocyanate (FITC)-labeled OVA, not encapsulated
NP-mediated FITC-OVA uptake (OVA fluorescence intensity) (LSECs): No significant uptake

B1: non-encapsulated fluorescent OVA: DyLight680-labeled ovalbumin injected free, not encapsulated (protein, UniProt P01012 2-386, looked up)
Ovalbumin: GSIGAASMEFCFDVFKELKVHHANENIFYCPIAIMSALAMVYLGAKDSTRTQINKVVRFDKLPGFGDSIEAQCGTSVNVHSSLRDILNQITKPNDVYSFSLASRLYAEERYPILPEYLQCVKELYRGGLEPINFQTAADQARELINSWVESQTNGIIRNVLQPSSVDSQTAMVLVNAIVFKGLWEKAFKDEDTQAMPFRVTEQESKPVQMMYQIGLFRVASMASEKMKILELPFASGTMSMLVLLPDEVSGLEQLESIINFEKLTEWTSSNVMEERKIKVYLPRMKMEEKYNLTSVLMAMGITDVFSSSANLSGISSAESLKISQAVHAAHAEINEAGREVVGSAEAGVDAASVSEEFRADHPFLFCIKHIATNAVLFFGRCVSP
modifications: DyLight680 label
organ distribution of labeled OVA (IVIS) (mice): kidney

B2: ApoB peptide (ApoBP), RLYRKRGLK, containing a GGC tag, conjugated to the surface of OVA-encapsulating PLGA nanoparticles (peptide)
peptide: RLYRKRGLK
modifications: also: GGC tag at one end, orientation unclear, tag Cys thioether-linked to maleimide (NAEM) on PLGA nanoparticle
percentage of OVA-positive LSECs (flow cytometry, uptake of nanoparticle-encapsulated FITC-OVA) [1]: ~2 fold | percentage of OVA-positive LSECs (flow cytometry, uptake of nanoparticle-encapsulated FITC-OVA) [2]: ~2 fold

From US12551542B2, “Polymeric nanoparticles that target liver sinusoidal endothelial cells to induce antigen-specific immune tolerance” (The Regents of the University of California, priority 2019, dated 2026)
